Experimental data taken from PMC3136212.

Molecular target: RPA (full-length heterotrimer RPA1/RPA2/RPA3) (human) (UniProt P27694+P15927+P35244)
Assay: FP
Design: unit not given here
Details: 18-carbon spacer (sp18) at 5' end; FP: 0.060 uM FAM-oligo, 10-1500 mM NaCl, room temperature; CD: Buffer A 25 mM Tris pH 7.5, 2 mM MgCl2, 6% glycerol, 1 mM DTT, 100 (or 10) mM …

Sequence of RPA (full-length heterotrimer RPA1/RPA2/RPA3) (human) (P27694 whole entry, chain 1 of 3): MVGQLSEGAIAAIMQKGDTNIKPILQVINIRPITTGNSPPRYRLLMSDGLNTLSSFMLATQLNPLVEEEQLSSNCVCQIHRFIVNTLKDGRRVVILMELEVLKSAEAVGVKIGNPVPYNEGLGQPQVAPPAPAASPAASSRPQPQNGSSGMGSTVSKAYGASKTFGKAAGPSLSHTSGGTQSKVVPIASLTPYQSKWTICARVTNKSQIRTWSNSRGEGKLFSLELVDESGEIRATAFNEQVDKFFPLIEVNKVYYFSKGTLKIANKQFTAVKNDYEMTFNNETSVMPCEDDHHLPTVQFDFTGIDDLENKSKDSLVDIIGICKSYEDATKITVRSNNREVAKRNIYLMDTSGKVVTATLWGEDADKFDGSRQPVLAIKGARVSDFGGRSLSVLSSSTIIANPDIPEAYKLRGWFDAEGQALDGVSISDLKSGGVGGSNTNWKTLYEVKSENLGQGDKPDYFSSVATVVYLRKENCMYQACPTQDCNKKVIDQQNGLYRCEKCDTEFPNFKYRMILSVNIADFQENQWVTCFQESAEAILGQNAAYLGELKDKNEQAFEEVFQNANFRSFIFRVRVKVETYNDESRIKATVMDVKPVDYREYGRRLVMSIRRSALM
Sequence of RPA (full-length heterotrimer RPA1/RPA2/RPA3) (human) (P15927 whole entry, chain 2 of 3): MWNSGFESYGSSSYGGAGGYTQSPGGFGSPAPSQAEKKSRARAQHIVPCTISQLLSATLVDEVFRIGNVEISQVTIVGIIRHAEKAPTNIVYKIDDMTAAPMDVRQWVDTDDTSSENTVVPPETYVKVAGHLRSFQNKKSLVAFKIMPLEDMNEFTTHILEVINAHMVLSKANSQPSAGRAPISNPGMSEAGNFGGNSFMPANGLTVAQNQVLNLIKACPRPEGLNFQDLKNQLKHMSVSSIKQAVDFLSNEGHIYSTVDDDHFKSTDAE
Sequence of RPA (full-length heterotrimer RPA1/RPA2/RPA3) (human) (P35244 whole entry, chain 3 of 3): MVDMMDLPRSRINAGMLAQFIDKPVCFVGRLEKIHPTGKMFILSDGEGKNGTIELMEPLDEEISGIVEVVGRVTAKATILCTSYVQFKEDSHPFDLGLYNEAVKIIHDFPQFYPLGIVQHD

Sequence | Kd
AAAAAAAAAAAAAAAAAAAAAAA [polyA] | 0.07
ATCCCCTTCCCAACCTCACCCAA [Anti (Comp)] | 0.07
TAGGGGAAGGGTTGGAGTGGGTT [Gq23 (FP)] | 0.05
